Assay results from the supplement of paper PMC7877785.
± gives the uncertainty stated by the source.

Test: self-splicing fitness, log relative to wild type (ln ratio); higher = more splicing; Tetrahymena group I intron in knt gene, E. coli kanamycin selection, DiMSum; sequences stand for … in CUCUCU…GGAGGGAAAAGUUAUCAGGCAUGCACCUGGUAGCUAGUCUUUAAACCAAUAGAUUGCAUCGGUUUAAAAGGCAAGACCGUCAAAUUGCGGGAAAGGGGUCAACAGCCGUUCAGUACCAAGUCUCAGGGGAAACUUUGAGAUGGCCUUGCAAAGGGUAUGGUAAUAAGCUGACGGACAUGGUCCUAACCACGCAGCCAAGUCCUAAGUCAACAGAUCUUCUGUUGAUAUGGAUGCAGUUCACAGACUAAAUGUCGGUCGGGGAAGAUGUAUUCUUCUCAUAAGAUAUAGUCGGACCUCUCCUUAAUGGGAGCUAGCGGAUGAAGUGAUGCAACACUGGAGCCGCUGGGAACUAAUUUGUAUGCGAAAGUAUAUUGAUUAGUUUUGGAGUACUCGUGGUCG
Procedure, shortened: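 Fitness was computed with DiMSum as the error-weighted combination of replicate fold changes, kanamycin versus none, each normalised to wild type. The library randomised all eight intron nucleotides of the P1ex region, with the intron placed in the knt kanamycin-resistance gene on pET-22b(+) in E. coli BL21(DE3). Six replicate transformations were grown overnight at 37°C or 30°C on LB agar with or without 25 μg/mL kanamycin, plus 100 μg/mL carbenicillin, 50 μM IPTG and 0.2% rhamnose. Pooled colonies were amplicon-sequenced on an Illumina HiSeq 2500.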

Sequence	self-splicing fitness (ln) (30 °C)	self-splicing fitness (ln) (37 °C)
AUUAAGCAAUAUUACGUGGU	-2.42 ± 0.16	-2.29 ± 0.19
AUUAAGCAAUAUUACGUUUG	-3.11 ± 0.15	-1.56 ± 0.16
AUUCAGCAAUAUUACGAAGG	-1.02 ± 0.087	-0.355 ± 0.12
AUUCAGCAAUAUUACGACAU	0.206 ± 0.012	0.365 ± 0.032
AUUCAGCAAUAUUACGAGCU	-1.21 ± 0.14	-0.997 ± 0.17
AUUCAGCAAUAUUACGAGUC	-3.54 ± 0.26	-2.13 ± 0.43
AUUCAGCAAUAUUACGCGGC	-3.26 ± 0.22	-2.43 ± 0.22
AUUCAGCAAUAUUACGGAAC	-2.54 ± 0.15	-1.01 ± 0.17
AUUCAGCAAUAUUACGGAAU	-2.86 ± 0.14	-2.61 ± 0.23
AUUCAGCAAUAUUACGGCUG	-1.86 ± 0.2	-2.59 ± 0.31
AUUCAGCAAUAUUACGGGAC	-3.2 ± 0.16	-1.2 ± 0.12
AUUCAGCAAUAUUACGGGCA	-1.47 ± 0.14	-0.16 ± 0.14
AUUCAGCAAUAUUACGGUAC	-2.27 ± 0.11	-0.675 ± 0.094
AUUCAGCAAUAUUACGGUCA	-0.711 ± 0.12	-0.789 ± 0.11
AUUCAGCAAUAUUACGGUGC	-2.13 ± 0.16	-0.156 ± 0.14
AUUCAGCAAUAUUACGUAGA	-1.35 ± 0.066	-0.424 ± 0.094
AUUCAGCAAUAUUACGUAUA	-1.66 ± 0.16	-0.805 ± 0.17
AUUCAGCAAUAUUACGUAUG	-2.34 ± 0.13	-0.383 ± 0.12
AUUCAGCAAUAUUACGUCAC	-3.45 ± 0.2	-2.19 ± 0.25
AUUCAGCAAUAUUACGUGUA	-1.7 ± 0.11	-1.02 ± 0.092
AUUGAGCAAUAUUACGAACA	-3.6 ± 0.32	-2.75 ± 0.25
AUUGAGCAAUAUUACGAAGA	-2.47 ± 0.25	-2.23 ± 0.35
AUUGAGCAAUAUUACGACAG	-3.48 ± 0.26	-2.18 ± 0.21
AUUGAGCAAUAUUACGACCU	-3.17 ± 0.27	-0.0611 ± 0.17

Sequence	self-splicing fitness (ln) (30 °C)	self-splicing fitness (ln) (37 °C)
AUUGAGCAAUAUUACGACUA	-1.2 ± 0.42	-1.89 ± 0.41
AUUGAGCAAUAUUACGACUU	-1.5 ± 0.12	-0.31 ± 0.13
AUUGAGCAAUAUUACGAGCC	-3.44 ± 0.26	-2.48 ± 0.3
AUUGAGCAAUAUUACGAGCU	-3.6 ± 0.37	-1.63 ± 0.37
AUUGAGCAAUAUUACGAGUU	-2.58 ± 0.14	-2.23 ± 0.17
AUUGAGCAAUAUUACGAUCG	-2.34 ± 0.34	-1.04 ± 0.19
AUUGAGCAAUAUUACGAUUA	-2.36 ± 0.23	-2.62 ± 0.36
AUUGAGCAAUAUUACGCCCU	-2.51 ± 0.24	-0.951 ± 0.21
AUUGAGCAAUAUUACGCGCA	-1.48 ± 0.16	-1.08 ± 0.2
AUUGAGCAAUAUUACGCUAC	-3.69 ± 0.37	–
AUUGAGCAAUAUUACGGAGU	-3.76 ± 0.15	-1.86 ± 0.1
AUUGAGCAAUAUUACGGCCG	-3.13 ± 0.26	-0.636 ± 0.18
AUUGAGCAAUAUUACGGCCU	-3.53 ± 0.21	-0.674 ± 0.11
AUUGAGCAAUAUUACGGCUA	-1.73 ± 0.37	-0.81 ± 0.21
AUUGAGCAAUAUUACGGGAG	-3.67 ± 0.26	-2.33 ± 0.27
AUUGAGCAAUAUUACGGUAG	-3.32 ± 0.24	–
AUUGAGCAAUAUUACGUACG	-3.25 ± 0.29	-1.53 ± 0.26
AUUGAGCAAUAUUACGUACU	-2.1 ± 0.28	-2.57 ± 0.49
AUUGAGCAAUAUUACGUAGU	-2.08 ± 0.17	-0.638 ± 0.14
AUUGAGCAAUAUUACGUAUA	-2.67 ± 0.28	-2.98 ± 0.32
AUUGAGCAAUAUUACGUGAG	-2.08 ± 0.11	-1.97 ± 0.14
AUUGAGCAAUAUUACGUGCC	-2.73 ± 0.4	–
AUUGAGCAAUAUUACGUGCG	-3.83 ± 0.24	-2.02 ± 0.16
AUUGAGCAAUAUUACGUGGC	-3.45 ± 0.16	-3.69 ± 0.3

Sequence	self-splicing fitness (ln) (30 °C)	self-splicing fitness (ln) (37 °C)
AUUGAGCAAUAUUACGUUGA	-3.86 ± 0.37	-3.45 ± 0.3
AUUUAGCAAUAUUACGACGG	-1.79 ± 0.18	-0.641 ± 0.16
AUUUAGCAAUAUUACGACUC	-0.866 ± 0.14	0.207 ± 0.16
AUUUAGCAAUAUUACGACUG	-2 ± 0.17	-1.41 ± 0.16
AUUUAGCAAUAUUACGAGAC	-2.44 ± 0.39	–
AUUUAGCAAUAUUACGAGUU	-2.58 ± 0.3	-0.85 ± 0.23
AUUUAGCAAUAUUACGAUGA	-1.8 ± 0.14	-0.68 ± 0.15
AUUUAGCAAUAUUACGCCCC	-0.747 ± 0.37	–
AUUUAGCAAUAUUACGCCGU	-1.2 ± 0.2	-1.44 ± 0.22
AUUUAGCAAUAUUACGCUGA	-1.32 ± 0.19	-2.44 ± 0.3
AUUUAGCAAUAUUACGCUUA	-1.99 ± 0.17	-0.321 ± 0.19
AUUUAGCAAUAUUACGCUUG	-0.566 ± 0.088	-0.134 ± 0.12
AUUUAGCAAUAUUACGGAAC	-3.03 ± 0.3	-2.02 ± 0.31
AUUUAGCAAUAUUACGGCGA	-0.579 ± 0.12	0.144 ± 0.11
AUUUAGCAAUAUUACGGCUA	-0.795 ± 0.13	0.255 ± 0.12
AUUUAGCAAUAUUACGUACA	-1.7 ± 0.15	-1.39 ± 0.13
AUUUAGCAAUAUUACGUAGG	-2.98 ± 0.14	-2.02 ± 0.16
AUUUAGCAAUAUUACGUAGU	-1.54 ± 0.079	-0.851 ± 0.1
AUUUAGCAAUAUUACGUAUA	-2.53 ± 0.34	-1.48 ± 0.21
AUUUAGCAAUAUUACGUCGG	-3.82 ± 0.4	-3.18 ± 0.32
AUUUAGCAAUAUUACGUGAG	-1.6 ± 0.083	-0.846 ± 0.13
AUUUAGCAAUAUUACGUUGU	-3.01 ± 0.19	-2.82 ± 0.27
AUUUAGCAAUAUUACGUUUC	-2.86 ± 0.27	-1.91 ± 0.34
CAAAAGCAAUAUUACGAAUC	-4.86 ± 0.38	-2.71 ± 0.21

Sequence	self-splicing fitness (ln) (30 °C)	self-splicing fitness (ln) (37 °C)
CAAAAGCAAUAUUACGACAC	-3.37 ± 0.19	-1.01 ± 0.15
CAAAAGCAAUAUUACGAGAU	-3.7 ± 0.2	-2.21 ± 0.16
CAAAAGCAAUAUUACGAGUU	-3.02 ± 0.15	-2.46 ± 0.16
CAAAAGCAAUAUUACGCAAC	-2.59 ± 0.16	-2.53 ± 0.27
CAAAAGCAAUAUUACGCAGC	-3.68 ± 0.16	-2.36 ± 0.16
CAAAAGCAAUAUUACGCAGG	-2.51 ± 0.1	-1.24 ± 0.087
CAAAAGCAAUAUUACGCAUC	-3.35 ± 0.11	-1.52 ± 0.12
CAAAAGCAAUAUUACGCCCG	-0.0339 ± 0.13	0.354 ± 0.15
CAAAAGCAAUAUUACGCGAA	-3.36 ± 0.23	-1.3 ± 0.17
CAAAAGCAAUAUUACGCGAG	-2.58 ± 0.098	-1.06 ± 0.078
CAAAAGCAAUAUUACGCGGG	-2.38 ± 0.11	-1.87 ± 0.13
CAAAAGCAAUAUUACGGACA	-2.21 ± 0.15	-1.64 ± 0.17
CAAAAGCAAUAUUACGGAGU	-3.64 ± 0.14	-2.56 ± 0.16
CAAAAGCAAUAUUACGGCAU	-1.85 ± 0.11	-1.4 ± 0.14
CAAAAGCAAUAUUACGGGUA	-2.22 ± 0.13	-2.12 ± 0.15
CAAAAGCAAUAUUACGUAAU	-3.57 ± 0.15	-3.04 ± 0.18
CAAAAGCAAUAUUACGUCCG	-0.119 ± 0.082	0.175 ± 0.1
CAAAAGCAAUAUUACGUCUG	-0.838 ± 0.042	-0.0271 ± 0.052
CAAAAGCAAUAUUACGUUUU	-3.57 ± 0.12	-2.79 ± 0.16
CAACAGCAAUAUUACGAACC	-2.27 ± 0.25	-1.62 ± 0.22
CAACAGCAAUAUUACGAAGG	-0.969 ± 0.059	-0.0092 ± 0.078
CAACAGCAAUAUUACGACAG	-0.131 ± 0.073	0.499 ± 0.09
CAACAGCAAUAUUACGACGC	-0.56 ± 0.065	-0.0606 ± 0.085
CAACAGCAAUAUUACGAGCA	-2.97 ± 0.15	-1.01 ± 0.11
